Laboratory results taken from EP2785382B1 (IBC Pharmaceuticals, Inc., dated 2019).
Each block holds one molecule with its values, some of them ahead of it.

Columns and labels:
IGF-1R on cells (human) [1] = biological target: IGF-1R on cells (human) (UniProt P08069); assay: cell-based or functional assay
IGF-1R on cells (human) [2] = biological target: IGF-1R on cells (human) (UniProt P08069); assay: 125I-IGF-1 binding to MCF-7L cells with antibody at 1000 ng/mL
IGF-1R on cells (human) [3] = biological target: IGF-1R on cells (human) (UniProt P08069); assay: 125I-IGF-1 binding to MCF-7L cells with antibody at 100 ng/mL
[4] = biological target: recombinant human IGF-1R (R&D Systems, Catalog # 391-GR) (human) (UniProt P08069); assay: ELISA on immobilized rhIGF-1R (not shown); cR1 from clones 709.2D2 and 710.2G2, same affinity
recombinant human IGF-1R (R&D Systems, Catalog # 391-GR) (human), sequence (P08069 31-935): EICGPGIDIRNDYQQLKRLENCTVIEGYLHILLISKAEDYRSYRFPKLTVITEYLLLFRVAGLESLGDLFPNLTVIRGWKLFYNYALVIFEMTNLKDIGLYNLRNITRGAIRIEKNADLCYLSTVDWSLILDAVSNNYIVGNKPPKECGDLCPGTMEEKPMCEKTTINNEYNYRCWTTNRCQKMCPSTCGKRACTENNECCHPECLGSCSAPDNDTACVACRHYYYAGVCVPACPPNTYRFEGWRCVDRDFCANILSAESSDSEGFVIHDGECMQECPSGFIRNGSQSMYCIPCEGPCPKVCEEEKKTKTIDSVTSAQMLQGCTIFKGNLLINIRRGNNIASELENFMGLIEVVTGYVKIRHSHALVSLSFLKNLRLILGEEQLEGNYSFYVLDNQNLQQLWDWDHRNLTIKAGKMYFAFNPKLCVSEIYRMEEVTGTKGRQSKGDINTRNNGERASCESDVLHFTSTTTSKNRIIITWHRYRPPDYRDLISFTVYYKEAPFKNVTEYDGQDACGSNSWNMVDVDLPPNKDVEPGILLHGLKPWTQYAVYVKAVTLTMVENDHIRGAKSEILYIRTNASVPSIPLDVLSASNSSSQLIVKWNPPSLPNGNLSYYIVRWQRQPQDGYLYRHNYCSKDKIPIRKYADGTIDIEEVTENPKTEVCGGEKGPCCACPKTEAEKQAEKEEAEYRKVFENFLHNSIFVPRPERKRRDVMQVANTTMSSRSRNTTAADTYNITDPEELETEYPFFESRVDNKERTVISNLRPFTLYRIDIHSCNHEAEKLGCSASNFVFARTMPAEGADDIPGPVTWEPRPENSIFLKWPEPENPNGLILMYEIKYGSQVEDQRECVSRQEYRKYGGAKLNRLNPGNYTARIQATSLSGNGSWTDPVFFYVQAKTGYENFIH

IGF-1R on cells (human) [5] = biological target: IGF-1R on cells (human) (UniProt P08069); assay: flow cytometry (FACScan), MCF-7 cells
IGF-1R on cells (human) [6] = biological target: IGF-1R on cells (human) (UniProt P08069); assay: flow cytometry (FACScan), ME-180 cells
[7] = biological target: T1, recombinant human IGF-1R (R&D Systems, Catalog # 391-GR) (human, UniProt P08069 31-935); assay: rhIGF-1R on polystyrene beads (not shown)
T1 construct: extracellular domain; immobilized on ELISA plates or polystyrene beads; also called rhIGF-1R; IGF-1R-coated beads
T1 sequence (P08069 31-935): as above

IGF-1R on cells (human) [8] = biological target: IGF-1R on cells (human) (UniProt P08069); assay: flow cytometry (FACScan), DU 145 cells

IGF-1R on cells (human), sequence (P08069 31-1367): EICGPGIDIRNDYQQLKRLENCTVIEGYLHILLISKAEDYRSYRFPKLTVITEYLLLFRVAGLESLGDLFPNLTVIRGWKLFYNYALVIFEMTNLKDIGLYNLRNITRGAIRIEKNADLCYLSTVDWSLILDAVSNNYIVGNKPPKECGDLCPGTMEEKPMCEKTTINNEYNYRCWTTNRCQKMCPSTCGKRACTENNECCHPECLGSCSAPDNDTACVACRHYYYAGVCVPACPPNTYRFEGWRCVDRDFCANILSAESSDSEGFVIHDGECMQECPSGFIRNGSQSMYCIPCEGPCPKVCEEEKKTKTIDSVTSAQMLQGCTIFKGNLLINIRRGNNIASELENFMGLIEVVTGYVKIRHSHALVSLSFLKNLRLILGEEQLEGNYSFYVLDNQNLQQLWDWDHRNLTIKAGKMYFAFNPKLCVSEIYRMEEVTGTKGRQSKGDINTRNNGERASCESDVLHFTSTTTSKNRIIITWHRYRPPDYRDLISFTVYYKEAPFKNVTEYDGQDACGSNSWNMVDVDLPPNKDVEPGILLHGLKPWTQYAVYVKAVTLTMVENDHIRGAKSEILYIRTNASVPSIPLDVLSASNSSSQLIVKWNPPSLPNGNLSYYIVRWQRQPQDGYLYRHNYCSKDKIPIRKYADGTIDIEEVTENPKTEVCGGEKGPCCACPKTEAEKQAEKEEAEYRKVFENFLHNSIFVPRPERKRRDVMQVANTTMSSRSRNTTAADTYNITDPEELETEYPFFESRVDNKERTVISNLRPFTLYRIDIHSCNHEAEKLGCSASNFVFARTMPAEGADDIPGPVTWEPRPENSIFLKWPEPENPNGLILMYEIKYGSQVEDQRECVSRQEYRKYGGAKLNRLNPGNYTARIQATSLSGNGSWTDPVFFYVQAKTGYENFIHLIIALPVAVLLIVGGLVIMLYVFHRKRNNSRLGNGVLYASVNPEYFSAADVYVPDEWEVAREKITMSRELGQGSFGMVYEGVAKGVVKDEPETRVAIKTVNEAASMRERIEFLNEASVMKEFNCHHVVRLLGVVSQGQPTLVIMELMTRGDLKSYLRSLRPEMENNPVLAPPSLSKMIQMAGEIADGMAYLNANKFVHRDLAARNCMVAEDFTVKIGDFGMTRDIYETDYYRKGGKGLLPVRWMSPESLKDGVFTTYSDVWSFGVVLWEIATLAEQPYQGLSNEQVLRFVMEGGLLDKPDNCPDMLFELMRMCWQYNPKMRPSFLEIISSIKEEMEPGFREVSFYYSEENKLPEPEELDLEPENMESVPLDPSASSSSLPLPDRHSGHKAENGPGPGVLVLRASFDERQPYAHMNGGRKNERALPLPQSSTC

- Kd [4]: 0.1 nM
B1: cR1 (antibody, from another filing, V domains shown)
VH: EVKLVESGGGLVQPGGSLKLSCATSGFTFSDYYMYWVRQTPEKRLEWVAYITNYGGSTYYPDTVKGRFTISRDNAKNTLYLQMSRLRSEDTAMYFCARQSNYDYDGWFAYWGQGTTVTVSS
VL: DIVMTQSHKFMSTSVGDRVSITCKASQEVGTAVAWYQQKPGQSPKLLIYWASTRHTGVPDRFTGSGSGTDFTLTISNVQSEDLADYFCQQYSNYPLTFGAGAKLELKR

- % Positive (IGF-1R on cells (human) [5]): 89.2%
- MFI (IGF-1R on cells (human) [5]): 9.93
- concentration giving complete receptor down-regulation (IGF-1R on cells (human) [1]): 10 nM
- maximum growth inhibition, 786-O cells (8 nM), serum-free, IGF-1 100 ng/mL, MTS (IGF-1R on cells (human) [1]): 26%
- maximum growth inhibition, ACHN cells (200 nM), serum-free, IGF-1 100 ng/mL, MTS (IGF-1R on cells (human) [1]): 3%
- maximum growth inhibition, Caki-2 cells (8 nM), serum-free, IGF-1 100 ng/mL, MTS (IGF-1R on cells (human) [1]): 33%
- % Positive (IGF-1R on cells (human) [6]): 10.7%
- MFI (IGF-1R on cells (human) [6]): 3.65
- binding result [7]: binds
- % Positive (IGF-1R on cells (human) [8]): 30.4%
- MFI (IGF-1R on cells (human) [8]): 5.33
B2: hR1 (antibody, IgG1, V domains shown)
VH: QVQLQESGGGVVQPGRSLRLSCSASGFTFSDYYMYWVRQAPGKGLEWVAYITNYGGSTYYPDTVKGRFTISRDNAKNTLFLQMDSLRPEDTGVYFCARQSNYDYDGWFAYWGQGTPVTVSS
VL: DIQLTQSPSSLSASVGDRVTITCKASQEVGTAVAWYQQKPGKAPKLLIYWASTRHTGVPSRFSGSGSGTDFTFTISSLQPEDIATYFCQQYSNYPLTFGQGTKVEIKR
notes: also called humanized anti-IGF-1R; hR1 IgG

More lines, now with the values behind:

Molecule: MAB391 (antibody)
- maximum growth inhibition, 786-O cells (8 nM), serum-free, IGF-1 100 ng/mL, MTS (IGF-1R on cells (human) [1]): 34%
- maximum growth inhibition, ACHN cells (200 nM), serum-free, IGF-1 100 ng/mL, MTS (IGF-1R on cells (human) [1]): 48%
- maximum growth inhibition, Caki-2 cells (8 nM), serum-free, IGF-1 100 ng/mL, MTS (IGF-1R on cells (human) [1]): 50%
- % binding of 125I-IGF-1 to MCF-7L (IGF-1R on cells (human) [2]): 38%
- % binding of 125I-IGF-1 to MCF-7L (IGF-1R on cells (human) [3]): 54%

B3: 1R-E1 (bispecific antibody, part only; not given: hRS7 Fab-DDD2 module, not shown: a dimerising Fc or GST)
heavy (part 1 of 2): B2 VH
heavy (part 2 of 2): GSGGGGSGGCGQIEYLAKQIVDNAIQQAGC
light: B2 VL
- concentration substantially reducing the level of IGF-1R in MCF-7, DU-145 and LnCap (IGF-1R on cells (human) [1]): 0.1 nM

B4: Hex-hR1 (antibody, V domains shown, not shown: a dimerising Fc or GST; small tags and cut ends)
VH: B2 VH
VL: DIQLTQSPSSLSASVGDRVTITCKASQEVGTAVAWYQQKPGKAPKLLIYWASTRHTGVPSRFSGSGSGTDFTFTISSLQPEDIATYFCQQYSNYPLTFGQGTKVEIK
modifications: DNL complex: one IgG-AD2 and four Fab-DDD2, disulfide-locked through AD2 and DDD2. All six Fabs carry the same hR1 VH/VK [CUT]
- maximum growth inhibition, 786-O cells (8 nM), serum-free, IGF-1 100 ng/mL, MTS (IGF-1R on cells (human) [1]): 35%
- maximum growth inhibition, ACHN cells (200 nM), serum-free, IGF-1 100 ng/mL, MTS (IGF-1R on cells (human) [1]): 48%
- maximum growth inhibition, Caki-2 cells (8 nM), serum-free, IGF-1 100 ng/mL, MTS (IGF-1R on cells (human) [1]): 43%
